From patent US20240067758A1 (UCB, published 2024)

Columns and labels:
Human IL22 [1] = molecular target: T1, Human IL22 (human, UniProt Q9GZX6 34-179); experiment: SPR (Biacore); human IL22
T1 construct: IL22 of the Biacore and cell assays
T1 sequence: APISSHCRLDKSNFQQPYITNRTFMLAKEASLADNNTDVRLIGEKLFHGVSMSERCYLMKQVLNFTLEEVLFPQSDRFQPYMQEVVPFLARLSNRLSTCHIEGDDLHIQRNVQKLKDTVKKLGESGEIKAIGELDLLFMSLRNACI

Human IL22 [2] = molecular target: T1, Human IL22; experiment: SPR Biacore T200; mean KD
Procedure: (§1) BIA (Biomolecular Interaction Analysis) was performed using T200 (GE Healthcare). Affinipure IgG-F(ab′)₂ Fragment goat anti-human IgG, F(ab′)₂ fragment specific (Jackson ImmunoResearch) was immobilized on a CM5 Sensor Chip via amine coupling chemistry to a capture level of ˜5000 response units (RUs). HBS-EP+buffer (10 mM HEPES pH 7.4, 0.15 M NaCl, 3 mM EDTA, 0.05% Surfactant P20, GE Healthcare) was used as the running buffer with a flow rate of 10 μL/min.
(§2) The surface was generated by 2×10 μL injections of 50 mM HCl, interspersed by a 10 μL injection of 5 mM NaOH at flowrate of 10 μL/min. Background subtraction binding curves were analyzed using the T200 evaluation software (version 3.0) following standard procedures. Kinetic parameters were determined from the fitting algorithm.

Human IL13 [3] = molecular target: T2, Human IL13 (human, UniProt P35225 35-146, limits assumed); experiment: cell-based or functional assay
Cynomolgus IL22 = molecular target: T3, Cynomolgus IL22 (cynomolgus, UniProt G7PHZ7 34-179); experiment: SPR Biacore T200; TrYbe captured on anti-human F(ab')2, analyte 10-0.3125 nM; mean KD
T3 construct: also called Cyno IL22; Cyno IL-22
T3 sequence: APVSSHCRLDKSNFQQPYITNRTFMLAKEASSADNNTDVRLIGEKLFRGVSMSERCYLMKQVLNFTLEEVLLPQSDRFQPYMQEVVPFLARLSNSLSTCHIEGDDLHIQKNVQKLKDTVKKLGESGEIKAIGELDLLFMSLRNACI
Procedure: as §1, §2

Cynomolgus IL13 = molecular target: T4, Cynomolgus IL13 (cynomolgus, UniProt Q0PW92 21-132); experiment: as above
T4 construct: also called Cyno IL-13
Procedure: as §1, §2

Mouse IL22 = molecular target: T5, Mouse IL22 (mouse, UniProt Q9JJY9 34-179); experiment: as above
T5 sequence (looked up): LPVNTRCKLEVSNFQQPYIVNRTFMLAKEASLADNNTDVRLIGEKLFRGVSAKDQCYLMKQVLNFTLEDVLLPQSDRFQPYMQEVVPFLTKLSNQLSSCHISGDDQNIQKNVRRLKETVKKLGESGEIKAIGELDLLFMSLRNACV
Procedure: as §1, §2

Human IL22 [4] = molecular target: T1, Human IL22; experiment: as above
Procedure: as §1, §2

Human IL13 [5] = molecular target: T2, Human IL13; experiment: as above
Procedure: as §1, §2

Cynomolgus Albumin = molecular target: T6, Cynomolgus Albumin (cynomolgus, UniProt A2V9Z4 25-608); experiment: SPR Biacore T200; TrYbe captured on anti-human F(ab')2, analyte 100-3 nM; mean KD
T6 construct: also called Cyno Albumin
Procedure: as §1, §2

Human Albumin = molecular target: T7, Human Albumin (human, UniProt P02768 25-609); experiment: as above
T7 construct: also called human serum albumin; HSA
Procedure: as §1, §2

Mouse Albumin = Mouse Albumin (mouse, UniProt P07724 25-608); experiment: as above
Procedure: as §1, §2

Human IL22 [6] = molecular target: T1, Human IL22; experiment: SPR; non-stressed T0 sample of the deamidation stress study
Human IL22 [7] = molecular target: T1, Human IL22; experiment: cell-based or functional assay
Mouse IL13 = molecular target: T8, Mouse IL13 (mouse, UniProt P20109 26-131, limits assumed); experiment: SPR Biacore T200; TrYbe captured on anti-human F(ab')2, mouse IL13 titrated
T8 sequence (looked up): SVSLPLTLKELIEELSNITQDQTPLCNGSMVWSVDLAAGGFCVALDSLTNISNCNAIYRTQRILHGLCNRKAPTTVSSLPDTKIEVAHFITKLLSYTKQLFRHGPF

Human IL22 [8] = molecular target: T1, Human IL22; experiment: SPR; sample stressed 2 weeks at 37 °C, pH 8.0 (Asn95 of light chain CDR3 >40% deamidated)

B1: 11070 (Fab, V domains shown)
VH: EVQLQESGPGLVQPSQTLSPTCTVSGFSLTSYSVHWVRQHSGKSLEWMGRMWSDGDTSYNSAFTSRLSITRDTSKSQVFLKMNSLQTEDTGTYYCARSLDFYYDTTLAFWGPGTTVTVSS
VL: DIVMTQTPSNLAASPGESVSINCKASKTISKYLAWYQQKPGKANKLLIYSGSTLQSGTPSRFSGSGSSTDFTLTIRNLEPEDFGLYYCQQHNEYPLTFGSGTKLEIK
B1 gave a Kd (Human IL22 [1]) of 0.049 nM.

B2: TrYbe molecule with 11070 gL7gH16 IL22 domain (other)
VL: DIQMTQSPSSVSASVGDRVTITCKASKTISKYLAWYQQKPGKANKLLIYSGSTLQSGVPSRFSGSGSGTDFTLTISSLQPEDFATYYCQQHNEYPLTFGQGTKLEIK
VH: EVQLQESGPGLVKPSQTLSLTCTVSGFSLTSYSVHWVRQHPGKGLEWIGRMWSDGDTSYNTAFTSRLTISRDTSKNQVSLKLSSVTAADTAVYYCARSLDFYYDTTLAFWGQGTTVTVSS
B2 gave a Kd (Human IL22 [2]) of less than 0.1 nM.

B3: IL13/IL22 TrYbe (other)
heavy: EVQLVESGGGLVQPGGSLRLSCAVSGFSLSSYAMIWVRQAPGKGLEWIGIIDIEGSTYYASWAKGRFTISRDNSKNTVYLQMNSLRAEDTAVYYCARDRFVGVDIFDPWGQGTLVTVSSASTKGPSVFPLAPSSKSTSGGTAALGCLVKDYFPEPVTVSWNSGALTSGVHTFPAVLQSSGLYSLSSVVTVPSSSLGTQTYICNVNHKPSNTKVDKKVEPKSCSGGGGSGGGGSEVQLLESGGGLVQPGGSLRLSCAVSGIDLSNYAINWVRQAPGKCLEWIGIIWASGTTFYATWAKGRFTISRDNSKNTVYLQMNSLRAEDTAVYYCARTVPGYSTAPYFDLWGQGTLVTVSSGGGGSGGGGSGGGGSGGGGSDIQMTQSPSSVSASVGDRVTITCQSSPSVWSNFLSWYQQKPGKAPKLLIYEASKLTSGVPSRFSGSGSGTDFTLTISSLQPEDFATYYCGGGYSSISDTTFGCGTKVEIKRT
light: AVQLTQSPSSLSASVGDRVTITCQASEDIYTNLAWYQQKPGKAPKLLIYWASTLASGVPSRFSGSGSGTDFTLTISSLQPEDFATYYCQASVYGNAADSRYTFGGGTKVEIKRTVAAPSVFIFPPSDEQLKSGTASVVCLLNNFYPREAKVQWKVDNALQSGNSQESVTEQDSKDSTYSLSSTLTLSKADYEKHKVYACEVTHQGLSSPVTKSFNRGECSGGGGSGGGGSEVQLVQSGAEVKKPGSSVKVSCKASGYSFTSYYIHWVRQAPGQCLEWMGRIGPGSGDINYNEKFKGRATFTVDKSTSTAYMELSSLRSEDTAVYYCARFHYDGADWGQGTLVTVSSGGGGSGGGGSGGGGSGGGGSDIQMTQSPSSLSASVGDRVTITCKASQNINENLDWYQQKPGKAPKLLIYYTDILQTGIPSRFSGSGSGTDYTLTISSLQPEDFATYYCYQYYSGYTFGCGTKLEIKRT
notes: also called batches PB8056 and PB7916
For B3, the “IC50 (read off the curve), inhibition of eotaxin-3 secretion, primary human keratinocytes stimulated with IL-13 and IL-22 at 100 ng/ml” value (Human IL13 [3]) was roughly 6 nM, the Kd (Cynomolgus IL22) was less than 0.1 nM and the Kd (Cynomolgus IL13) was less than 0.25 nM. For the same binder, the Kd (Mouse IL22) was 14 to 25 nM, the Kd (Human IL22 [4]) was less than 0.1 nM and the Kd (Human IL13 [5]) was less than 0.1 nM. It also gave a Kd (Cynomolgus Albumin) of 1 to 3 nM, a Kd (Human Albumin) of 1 to 3 nM and a Kd (Mouse Albumin) of 5 to 6 nM. For the same binder, the Kd (Human IL22 [6]) was 0.026 nM, the koff (Human IL22 [6]) was 3.1e-05 s⁻¹ and the kon (Human IL22 [6]) was 1.2e+06 M⁻¹ s⁻¹. The “IC50 (M) Geomean; IL22-induced IL-10 release, COLO205 cells; batch PB7916 (N = 4)” value (Human IL22 [7]) was 3.4e-11 M, the “IC50 (M) Geomean; IL22-induced IL-10 release, COLO205 cells; batch PB8056 (N = 4)” value (Human IL22 [7]) was 3.66e-11 M and the binding result (Mouse IL13) was “no binding (tested: 10 nM to 0.3125 nM)”. It also gave a Kd (Human IL22 [8]) of 0.03 nM, a koff (Human IL22 [8]) of 3.2e-05 s⁻¹ and a kon (Human IL22 [8]) of 1.1e+06 M⁻¹ s⁻¹.
